Assays:
Fc-scOX40L (mouse) = Fc-scOX40L (mouse) (UniProt P43488); assay: non-reducing SDS-PAGE and immunoblot; recombinant OX40L proteins in Laemmli sample buffer, non-heated/non-reducing, SDS-PAGE, immunoblot with anti-PA tag antibody; oligomers judged by molecular weight
scOX40L-Fc (mouse) = scOX40L-Fc (mouse) (UniProt P43488); assay: as above

Row | Substance | stoichiometry N (Fc-scOX40L (mouse)) | stoichiometry N (scOX40L-Fc (mouse))
1 | Fc-scOX40L (from UniProt P43488 51-198; P43488 51-198; P43488 51-198) (Fc fusion) | 2 | –
2 | scOX40L-Fc (from UniProt P43488 51-198; P43488 51-198; P43488 51-198) (Fc fusion) | – | 2
